Publication PMC3372767 (Biochimica et Biophysica Acta, 2012)

Key:
[1] = molecular target: N-terminal three Ig-like domains of human CSF-1R (hCSF-1R D1-D3) (human, UniProt P07333 20-298); experiment: ITC
[2] = molecular target: full-length ectodomain of human CSF-1R (hCSF-1R D1-D5) (human, UniProt P07333 20-517); experiment: ITC
Sequence of full-length ectodomain of human CSF-1R (hCSF-1R D1-D5) (P07333 20-517): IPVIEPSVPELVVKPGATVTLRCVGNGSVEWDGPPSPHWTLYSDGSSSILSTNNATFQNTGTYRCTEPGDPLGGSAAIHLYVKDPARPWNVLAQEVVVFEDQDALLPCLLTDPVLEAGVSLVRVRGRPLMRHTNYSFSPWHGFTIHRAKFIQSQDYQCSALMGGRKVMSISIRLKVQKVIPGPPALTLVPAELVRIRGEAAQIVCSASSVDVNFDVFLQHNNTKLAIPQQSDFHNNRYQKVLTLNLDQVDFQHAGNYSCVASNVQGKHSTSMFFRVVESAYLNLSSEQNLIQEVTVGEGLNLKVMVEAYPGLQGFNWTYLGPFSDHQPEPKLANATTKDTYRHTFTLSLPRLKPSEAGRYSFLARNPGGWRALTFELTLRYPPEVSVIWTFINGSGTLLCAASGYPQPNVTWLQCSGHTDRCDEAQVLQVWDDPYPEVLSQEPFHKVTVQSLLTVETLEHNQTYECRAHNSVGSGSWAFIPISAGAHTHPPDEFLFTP

Sequence of N-terminal three Ig-like domains of human CSF-1R (hCSF-1R D1-D3) (P07333 20-298): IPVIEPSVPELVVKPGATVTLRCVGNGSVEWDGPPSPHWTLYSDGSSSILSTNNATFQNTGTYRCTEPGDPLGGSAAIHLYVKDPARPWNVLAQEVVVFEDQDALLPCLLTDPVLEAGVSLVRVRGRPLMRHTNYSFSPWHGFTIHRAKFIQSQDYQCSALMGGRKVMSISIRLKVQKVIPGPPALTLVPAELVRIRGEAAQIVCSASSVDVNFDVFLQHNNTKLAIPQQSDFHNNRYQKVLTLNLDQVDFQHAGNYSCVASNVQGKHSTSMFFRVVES

- stoichiometry N [1]: 1
- fold higher affinity than to CSF-1R D1-D3 [2]: ~400 fold
- stoichiometry N [2]: 1
B1: human IL-34 (ligand, UniProt Q6ZMJ4 21-242, looked up)
chain: NEPLEMWPLTQNEECTVTGFLRDKLQYRSRLQYMKHYFPINYKISVPYEGVFRIANVTRLQRAQVSERELRYLWVLVSLSATESVQDVLLEGHPSWKYLQEVETLLLNVQQGLTDVEVSPKVESVLSLLNAPGPNLKLVRPKALLDNCFRVMELLYCSCCKQSSVLNWQDCEVPSPQSCSPEPSLQYAATQLYPPPPWSPSSPPHSTGSVRPVRAQGEGLLP
